Biological target: proline-rich tyrosine kinase 2 (Pyk2) (UniProt Q14289 1-1009)
Assay: pull-down

proline-rich tyrosine kinase 2 (Pyk2), sequence (Q14289 whole entry): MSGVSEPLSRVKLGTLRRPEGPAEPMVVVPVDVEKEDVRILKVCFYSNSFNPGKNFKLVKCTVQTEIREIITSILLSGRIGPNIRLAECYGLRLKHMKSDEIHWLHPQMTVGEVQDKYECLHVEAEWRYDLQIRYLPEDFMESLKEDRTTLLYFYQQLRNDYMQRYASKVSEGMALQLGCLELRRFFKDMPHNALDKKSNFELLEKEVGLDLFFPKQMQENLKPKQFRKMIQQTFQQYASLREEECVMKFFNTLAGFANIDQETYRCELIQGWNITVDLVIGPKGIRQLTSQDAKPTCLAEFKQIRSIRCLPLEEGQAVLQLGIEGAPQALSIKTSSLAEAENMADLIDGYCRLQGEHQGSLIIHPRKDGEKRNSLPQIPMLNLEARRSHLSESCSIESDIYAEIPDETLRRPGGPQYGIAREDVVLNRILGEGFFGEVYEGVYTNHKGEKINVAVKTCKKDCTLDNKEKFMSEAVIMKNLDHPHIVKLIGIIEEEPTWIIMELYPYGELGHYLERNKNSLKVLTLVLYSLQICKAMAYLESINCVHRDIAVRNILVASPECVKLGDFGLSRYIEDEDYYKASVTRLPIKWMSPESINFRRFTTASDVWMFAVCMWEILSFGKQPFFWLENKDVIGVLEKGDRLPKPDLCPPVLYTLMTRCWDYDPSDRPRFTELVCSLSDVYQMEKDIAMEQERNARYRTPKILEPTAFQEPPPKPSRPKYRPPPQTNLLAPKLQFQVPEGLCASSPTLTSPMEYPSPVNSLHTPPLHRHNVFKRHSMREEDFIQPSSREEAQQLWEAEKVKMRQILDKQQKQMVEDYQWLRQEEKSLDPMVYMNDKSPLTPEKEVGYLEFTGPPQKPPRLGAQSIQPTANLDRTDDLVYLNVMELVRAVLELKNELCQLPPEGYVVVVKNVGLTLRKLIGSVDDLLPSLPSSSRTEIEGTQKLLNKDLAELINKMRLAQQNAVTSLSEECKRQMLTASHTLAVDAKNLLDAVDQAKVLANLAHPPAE

Kd [nM] | Binder
150 ± 30 | GST-CrkII (recombinant chicken CrkII, wild type) (natural protein, UniProt Q04929 1-305, looked up) MAGQFDSEDRGSWYWGRLSRGDAVSLLQGQRHGTFLVRDSGSIPGDFVLSVSESSRVSHYIVNSLGPAGGRRAGGEGPGAPGLNPTRFRIGDQEFDSLPSLLEFYKIHYLDTTTLIEPVSRSRQNSGVILRQEEVEYVRALFDFNGNDDEDLPFKKGDILKIRDKPEEQWWNAEDMDGKRGMIPVPYVEKCRPSSASVSTLTGGNQDSSHPQPLGGPEPGPYAQPSINTPLPNLQNGPFYARVIQKRVPNAYDKTALALEVGELVKVTKINMSGQWEGECNGKRGHFPFTHVRLLDQQNPDEDFS
134 ± 34 | GST-CrkCSH3 (CrkII W276K, mutation at the C-terminal SH3 domain) (natural protein, chicken, UniProt Q04929 1-305, looked up) MAGQFDSEDRGSWYWGRLSRGDAVSLLQGQRHGTFLVRDSGSIPGDFVLSVSESSRVSHYIVNSLGPAGGRRAGGEGPGAPGLNPTRFRIGDQEFDSLPSLLEFYKIHYLDTTTLIEPVSRSRQNSGVILRQEEVEYVRALFDFNGNDDEDLPFKKGDILKIRDKPEEQWWNAEDMDGKRGMIPVPYVEKCRPSSASVSTLTGGNQDSSHPQPLGGPEPGPYAQPSINTPLPNLQNGPFYARVIQKRVPNAYDKTALALEVGELVKVTKINMSGQKEGECNGKRGHFPFTHVRLLDQQNPDEDFS
508 ± 158 | GST-CrkSH2 (CrkII R38K, mutation at the N-terminal SH2 domain) (natural protein, chicken, UniProt Q04929 1-305, looked up) MAGQFDSEDRGSWYWGRLSRGDAVSLLQGQRHGTFLVKDSGSIPGDFVLSVSESSRVSHYIVNSLGPAGGRRAGGEGPGAPGLNPTRFRIGDQEFDSLPSLLEFYKIHYLDTTTLIEPVSRSRQNSGVILRQEEVEYVRALFDFNGNDDEDLPFKKGDILKIRDKPEEQWWNAEDMDGKRGMIPVPYVEKCRPSSASVSTLTGGNQDSSHPQPLGGPEPGPYAQPSINTPLPNLQNGPFYARVIQKRVPNAYDKTALALEVGELVKVTKINMSGQWEGECNGKRGHFPFTHVRLLDQQNPDEDFS
